The values that follow come from patent publication US20110008766A1 (AbbVie / Abbott, published 2011).

Bounds are passed on as bounds.

Broadly, the Kd is a measure of binding affinity in units of concentration.

The target of assay [1] is T1, interleukin 18 (IL-18) (UniProt Q14116 37-193).
T1 construct: ALEXA Fluor 488-labelled in the FRET assay
Nature of the assay: FRET quenching titration in solution; outer domain (IL-18 1-4091); outer domain (IL-18 1-4091). On the procedure:
(§1) Briefly, the dissociation constants for the outer variable binding domain and the inner variable binding domain of a given DVD-Ig and its corresponding antigen were measured in direct binding experiments. […] After 30 minutes of incubation, all samples were measured on an SLM 8100 photon counting spectrofluorimeter. Samples were excited at 480 nm, and the emission was collected through a 530 nm (30 nm bandwidth) interference filter (Chroma Technology Corp., Rockingham, Vt.). All binding measurements were performed in 10 mM HEPES buffer, pH 7.4, containing 0.15 M NaCl, 3 mM EDTA, and 0.005% surfactant P20.
(§2) where Ligandₜₒₜₐₗ and ABSₜₒₜₐₗ are the -antigen concentrations and the total DVD-Ig binding sites for that antigen, respectively, and Fbound is the fraction of bound antigen. The binding data were fitted with a simple binding model to obtain the equilibrium dissociation constant (KD) according to equation [2]: […]

The target in assay [2] is T2, neutrophil gelatinase associated lipocalin (NGAL) (UniProt P80188 21-198).
T2 construct: also called recombinant NGAL
T2 sequence (P80188 21-198 limits assumed): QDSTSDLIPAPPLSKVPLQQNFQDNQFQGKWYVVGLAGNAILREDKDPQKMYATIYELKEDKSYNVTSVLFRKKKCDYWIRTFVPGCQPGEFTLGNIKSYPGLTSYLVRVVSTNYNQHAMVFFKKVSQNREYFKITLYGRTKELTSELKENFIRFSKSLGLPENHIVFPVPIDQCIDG
Nature of the assay: FRET quenching titration in solution; one value given for outer and inner domain. How it is done: as §1, §2

Assay [3] deals with T2, neutrophil gelatinase associated …. Nature of the assay: FRET quenching titration in solution; one value printed for outer (2322) and inner (903) domain. How it is done: as §1, §2
Assay [4] has the same target. The experiment in a line: FRET quenching titration in solution; ALEXA 488-antigen, BHQ-labelled binder. How it is done: as §1, §2
The target in assay [5] is T3, brain natriuretic peptide (BNP) (UniProt P16860 103-134).
T3 construct: ALEXA Fluor 488-labelled in the FRET assay
The experiment in a line: FRET quenching titration in solution; one value given for outer and inner domain. How it is done:
as §1, §2

In assay [6] the target is T3, brain natriuretic peptide (BNP). The experiment in a line: FRET quenching titration in solution; ALEXA 488-antigen, BHQ-labelled binder. How it is done: as §1, §2
Assay [7] deals with T2, neutrophil gelatinase associated …. The experiment in a line: FRET quenching titration in solution; inner domain (NGAL 1-2322-455); inner domain (NGAL 1-2322-455). On the procedure: as §1, §2

B1: DVD730 (bispecific antibody)
VH: QVQLQQPGSELVRPGASVKLSCKASGYTFTSYWMHWVKQRPGQGLEWIGNIYPGTVNTNYDEKFKNKATLTVDTSSSTAYMLLSSLTSEDSAVYYCTRDYYGGGLNYWGQGTTLTVSSASTKGPEVQLVESGGGLVQPGGSLKLSCAASGFTFNNYYMSWVRQTPERRLEWVAYISSSGGSTYYSDSVRGRFTISRDTARNTLYLQMTSLKSEDTAMYYCARHFGDYSYFDYWGQGTTLTVSS
VL: SIVMTQTPKFLLVSAGDRVTITCKASQSVSNDVAWFQQKPGQSPKLLIYYASNRYAGVPDRFTGSGFGTDFTFTISTVQAEDLAVYFCHQDYSSPRTFGGGTKLEIKRTVAAPDIQMTQSPASLSASVGETVTITCRASENFYSYLAWYQQKQGKSPQLLVYNAKTLAEGVPSRFSGSGSGTQFSLKINSLQPEDFGTYYCQHHYDIPLTFGAGTKLELKR
notes: also called DVD730 (IL18-2322-SS)
Turning to B1, in assay [1], the Kd stood at 0.6 nM.

B2: DVD721 (antibody)
VH: KIQLVQSGPELKKPGETVKISCKASGYTFTNYGMNWVKQAPGKGLKWMGWININTGEPTYAEEFKGRFAFSLETSATTAFLQINNLKNEDTATYLCARDSYSGGFDYWGQGTIVTVSSASTKGPSVFPLAPKIQLVQSGPELKKPGETVKISCKASGYTFTNYGMNWVKQAPGKGLKWMGWININTGEPTYAEEFKGRFAFSLETSATTAFLQINNLKNEDTATYLCARDSYSGGFDYWGQGTIVTVSS
VL: DIVMTQSPSSLSVSAGEKVTLSCKSSQSLLISGDQKNYLAWYQQKPGQPPKLLIYGASTRDSGVPDRFTGSGSGADFTLTISSVQAEDLAVYYCQNDHSFPPTFGAGTKLELKRTVAAPSVFIFPPDIVMTQSPSSLSVSAGEKVTLSCKSSQSLLISGDQKNYLAWYQQKPGQPPKLLIYGASTRDSGVPDRFTGSGSGADFTLTISSVQAEDLAVYYCQNDHSFPPTFGAGTKLELKR
notes: also called DVD721 (903-903-LL)
B2: in assay [2], the Kd was < 0.3 nM.

B3: DVD720 (antibody)
VH: EVQLVESGGGLVQPGGSLKLSCAASGFTFNNYYMSWVRQTPERRLEWVAYISSSGGSTYYSDSVRGRFTISRDTARNTLYLQMTSLKSEDTAMYYCARHFGDYSYFDYWGQGTTLTVSSASTKGPEVQLVESGGGLVQPGGSLKLSCAASGFTFNNYYMSWVRQTPERRLEWVAYISSSGGSTYYSDSVRGRFTISRDTARNTLYLQMTSLKSEDTAMYYCARHFGDYSYFDYWGQGTTLTVSS
VL: DIQMTQSPASLSASVGETVTITCRASENFYSYLAWYQQKQGKSPQLLVYNAKTLAEGVPSRFSGSGSGTQFSLKINSLQPEDFGTYYCQHHYDIPLTFGAGTKLELKRTVAAPDIQMTQSPASLSASVGETVTITCRASENFYSYLAWYQQKQGKSPQLLVYNAKTLAEGVPSRFSGSGSGTQFSLKINSLQPEDFGTYYCQHHYDIPLTFGAGTKLELKR
notes: also called DVD720 (2322-2322-SS)
Regarding B3, the Kd in assay [2] was < 0.07 nM.

B4: DVD723 (bispecific antibody)
VH: EVQLVESGGGLVQPGGSLKLSCAASGFTFNNYYMSWVRQTPERRLEWVAYISSSGGSTYYSDSVRGRFTISRDTARNTLYLQMTSLKSEDTAMYYCARHFGDYSYFDYWGQGTTLTVSSASTKGPSVFPLAPKIQLVQSGPELKKPGETVKISCKASGYTFTNYGMNWVKQAPGKGLKWMGWININTGEPTYAEEFKGRFAFSLETSATTAFLQINNLKNEDTATYLCARDSYSGGFDYWGQGTIVTVSS
VL: DIQMTQSPASLSASVGETVTITCRASENFYSYLAWYQQKQGKSPQLLVYNAKTLAEGVPSRFSGSGSGTQFSLKINSLQPEDFGTYYCQHHYDIPLTFGAGTKLELKRTVAAPSVFIFPPDIVMTQSPSSLSVSAGEKVTLSCKSSQSLLISGDQKNYLAWYQQKPGQPPKLLIYGASTRDSGVPDRFTGSGSGADFTLTISSVQAEDLAVYYCQNDHSFPPTFGAGTKLELKR
notes: also called DVD723 (2322-903-LL)
As to B4, the Kd in assay [3] was < 0.2 nM.

B5: AB083 (antibody, V domains shown)
VH: KIQLVQSGPELKKPGETVKISCKASGYTFTNYGMNWVKQAPGKGLKWMGWININTGEPTYAEEFKGRFAFSLETSATTAFLQINNLKNEDTATYLCARDSYSGGFDYWGQGTIVTVSS
VL: DIVMTQSPSSLSVSAGEKVTLSCKSSQSLLISGDQKNYLAWYQQKPGQPPKLLIYGASTRDSGVPDRFTGSGSGADFTLTISSVQAEDLAVYYCQNDHSFPPTFGAGTKLELKR
notes: also called AB083 (903); Chimeric mAb 903
In assay [4], B5 yielded a Kd of 0.7 nM.

B6: DVD719 (antibody)
VH: EVQLVESGGGLVQPGGSLKLSCAASGFTFNNYYMSWVRQTPERRLEWVAYISSSGGSTYYSDSVRGRFTISRDTARNTLYLQMTSLKSEDTAMYYCARHFGDYSYFDYWGQGTTLTVSSASTKGPSVFPLAPEVQLVESGGGLVQPGGSLKLSCAASGFTFNNYYMSWVRQTPERRLEWVAYISSSGGSTYYSDSVRGRFTISRDTARNTLYLQMTSLKSEDTAMYYCARHFGDYSYFDYWGQGTTLTVSS
VL: DIQMTQSPASLSASVGETVTITCRASENFYSYLAWYQQKQGKSPQLLVYNAKTLAEGVPSRFSGSGSGTQFSLKINSLQPEDFGTYYCQHHYDIPLTFGAGTKLELKRTVAAPSVFIFPPDIQMTQSPASLSASVGETVTITCRASENFYSYLAWYQQKQGKSPQLLVYNAKTLAEGVPSRFSGSGSGTQFSLKINSLQPEDFGTYYCQHHYDIPLTFGAGTKLELKR
notes: also called DVD719 (2322-2322-LL)
Take B6: the Kd in assay [2] is < 0.05 nM.

B7: DVD736 (bispecific antibody)
VH: QVQLQQPGAELVRPGASVKLSCKASGYTFTSYWMNWVKQRPEQGLEWIGRIDPYDSETHYNQKFKDKAILTVDKSSSTAFVQLTSLTSEDSAVYYCVSDGYWGAGTTVTVSSASTKGPSVFPLAPQIQLVQSGPELRKPGETVKISCKGSGYTFTHYGINWVKQTPRKDLKWMGWINTHTGEAYYADDFKGRFAFSLETSANTAYLQINNLNNGDMGTYFCTRSHRFGLDYWGQGTSVTVSS
VL: DVVMTQTPLTLSVTTGQPASISCKSSQSLLDSDGKTYLNWLFQRPGESPKLLIYVVSKLESGVPDRFTGSGSGTDFTLKISRVEAEDLGVYYCLQATHFPWTFGGGTKLEIKRTVAAPSVFIFPPDNVLTQSPPSLAVSLGQRATISCKANWPVDYNGDSYLNWYQQKPGQPPKFLIYAASNLESGIPARFSGSGSGTDFNLNIHPVEEEDAATYYCQQSNEDPFTFGSGTKLEIKR
notes: also called DVD736H/DVD736L
B7: the Kd in assay [5] is < 0.03 nM.

B8: AB090 (antibody, V domains shown)
VH: QVQLQQPGAELVRPGASVKLSCKASGYTFTSYWMNWVKQRPEQGLEWIGRIDPYDSETHYNQKFKDKAILTVDKSSSTAFVQLTSLTSEDSAVYYCVSDGYWGAGTTVTVSS
VL: DVVMTQTPLTLSVTTGQPASISCKSSQSLLDSDGKTYLNWLFQRPGESPKLLIYVVSKLESGVPDRFTGSGSGTDFTLKISRVEAEDLGVYYCLQATHFPWTFGGGTKLEIKR
notes: also called BNP 3-631-436
With B8, the affinity in assay [6], expressed as Kd, was 0.3 nM.

B9: AB082 (antibody, V domains shown)
VH: EVQLVESGGGLVQPGGSLKLSCAASGFTFNNYYMSWVRQTPERRLEWVAYISSSGGSTYYSDSVRGRFTISRDTARNTLYLQMTSLKSEDTAMYYCARHFGDYSYFDYWGQGTTLTVSS
VL: DIQMTQSPASLSASVGETVTITCRASENFYSYLAWYQQKQGKSPQLLVYNAKTLAEGVPSRFSGSGSGTQFSLKINSLQPEDFGTYYCQHHYDIPLTFGAGTKLELKR
notes: also called AB082 (2322); Chimeric mAb 2322
Take B9: the Kd in assay [4] is < 0.05 nM.

B10: DVD738 (bispecific antibody)
VH: QIQLVQSGPELRKPGETVKISCKGSGYTFTHYGINWVKQTPRKDLKWMGWINTHTGEAYYADDFKGRFAFSLETSANTAYLQINNLNNGDMGTYFCTRSHRFGLDYWGQGTSVTVSSASTKGPSVFPLAPQVQLQQPGAELVRPGASVKLSCKASGYTFTSYWMNWVKQRPEQGLEWIGRIDPYDSETHYNQKFKDKAILTVDKSSSTAFVQLTSLTSEDSAVYYCVSDGYWGAGTTVTVSS
VL: DNVLTQSPPSLAVSLGQRATISCKANWPVDYNGDSYLNWYQQKPGQPPKFLIYAASNLESGIPARFSGSGSGTDFNLNIHPVEEEDAATYYCQQSNEDPFTFGSGTKLEIKRTVAAPSVFIFPPDVVMTQTPLTLSVTTGQPASISCKSSQSLLDSDGKTYLNWLFQRPGESPKLLIYVVSKLESGVPDRFTGSGSGTDFTLKISRVEAEDLGVYYCLQATHFPWTFGGGTKLEIKR
notes: also called DVD738H/DVD738L
In the case of B10, the Kd in assay [5] was < 0.03 nM.

B11: DVD731 (bispecific antibody)
VH: QVQLQQPGSELVRPGASVKLSCKASGYTFTSYWMHWVKQRPGQGLEWIGNIYPGTVNTNYDEKFKNKATLTVDTSSSTAYMLLSSLTSEDSAVYYCTRDYYGGGLNYWGQGTTLTVSSASTKGPSVFPLAPEVQLVESGGGLVQPGGSLKLSCAASGFTFNNYYMSWVRQTPERRLEWVAYISSSGGSTYYSDSVRGRFTISRDTARNTLYLQMTSLKSEDTAMYYCARHFGDYSYFDYWGQGTTLTVSS
VL: SIVMTQTPKFLLVSAGDRVTITCKASQSVSNDVAWFQQKPGQSPKLLIYYASNRYAGVPDRFTGSGFGTDFTFTISTVQAEDLAVYFCHQDYSSPRTFGGGTKLEIKRTVAAPSVFIFPPDIQMTQSPASLSASVGETVTITCRASENFYSYLAWYQQKQGKSPQLLVYNAKTLAEGVPSRFSGSGSGTQFSLKINSLQPEDFGTYYCQHHYDIPLTFGAGTKLELKR
notes: also called DVD731 (IL18-2322-LL)
As for B11, the Kd was 0.08 nM in assay [7] and 0.9 nM in assay [1].
